Reference: publication PMC3682188, “Membrane Binding and Self-Association of the Epsin N-Terminal Homology Domain” (Journal of Molecular Biology, 2012)

Target: the molecule itself
Assay: EPR spectroscopy (spin-spin interaction of singly labeled protein, with spin dilution); bound to preformed lipid tubules (10% cholesterol/40% phosphatidylcholine/40% galactocerebrosides/10% PIP2); 10 uM protein with 60 ug tubes in 100 ul, 10 min at RT, pelleted at 152,800g; 20 mM Hepes pH 7.4, 150 mM NaCl; fully labeled compared with 33% labeled and 67% unlabeled protein

B1: rat epsin 1 ENTH domain (1-164), spin-labeled at residue 14 (domain or fragment)
chain: GSPGIHMSTSSLRRQMKNICHNYSEAEIKVREATSNDPWGPSSSLMSEIADLTYNVVAFSEIMSMIWKRLNDHGKNWRHVYKAMTLMEYLIKTGSERVSQQSKENMYAVQTLKDFQYVDRDGKDQGVNVREKAKQLVALLRDEDRLREERAHALKTKEKLAQTATASSAA
modifications: MTSL spin label (R1 side chain) on the cysteine introduced at position 14
notes: cysteine-less background (C96S) with a single cysteine at position 14; same construct as the crystallography study (PDB 1H0A); also called V14; source: E. coli BL21 (DE3), purified (glutathione-Sepharose, thrombin, ion exchange, gel filtration), labeled with MTSL; not shown: GST, N-terminal, cleaved
- binding result: binds
